1 molecule from PMC8782923, “A Klotho-derived peptide protects against kidney fibrosis by targeting TGF-β signaling” (Nature Communications, 2022) can be followed below.

This assay relates to NRK-49F cells. The experiment in a line: α-SMA mRNA induced by TGF-β1 in NRK-49F cells (qRT-PCR). The conditions noted are these: TGF-β1 2 ng/ml, KP1 or sKlotho 10 µg/ml, individual values, n = 4, Fig. 1b. The class given is cell-based, rat. How it is done:
Normal rat kidney interstitial fibroblasts (NRK-49F) and human proximal tubular epithelial cells (HKC-8) were cultured at 37 °C. NRK-49F cells were serum-starved for 24 h and were pretreated with KP1 (10 µg/ml, 3 µM) for 1 h prior to incubation with TGF-β1 (#240-B; R&D Systems) at 2 ng/ml. Cells were collected at 45 min or 24 h after TGF-β1 treatment, respectively. Whole-cell lysates were prepared and subjected to Western blot analyses. For some experiments, cells were transiently transfected with expression vector human secreted Klotho (sKlotho) that only contains KL1 domain[48], by using Lipofectamine 2000 reagent (Invitrogen, Grand Island, NY) prior to treatment with TGF-β1.
Total RNA was isolated from NRK-49F cells by using a TRIzol RNA isolation system (Invitrogen, Carlsbad, CA). The cDNA was synthesized using 2 µg of RNA in 20 µl of reaction buffer containing AMV-RT (Promega, Madison, WI), random primers, and oligo primers at 42 °C for 60 min. Quantitative, real-time PCR (qRT-PCR) was performed using a Platinum SYBR Green qPCR Super Mix-UDG kit (Invitrogen). The sequences of the primer pairs: F: […]; R: […]. QPCR data were collected by Step one software v2.2.2.
Background: In qPCR the cycle at which signal appears reflects the starting amount.

“And” between values parts separate entries of the source, which are not always exact repeats. Equal values may be shown once.

B1: sKlotho: soluble Klotho; expression vector human secreted Klotho contains only KL1 domain (protein)
chain: EPGDGAQTWARFSRPPAPEAAGLFQGTFPDGFLWAVGSAAYQTEGGWQQHGKGASIWDTFTHHPLAPPGDSRNASLPLGAPSPLQPATGDVASDSYNNVFRDTEALRELGVTHYRFSISWARVLPNGSAGVPNREGLRYYRRLLERLRELGVQPVVTLYHWDLPQRLQDAYGGWANRALADHFRDYAELCFRHFGGQVKYWITIDNPYVVAWHGYATGRLAPGIRGSPRLGYLVAHNLLLAHAKVWHLYNTSFRPTQGGQVSIALSSHWINPRRMTDHSIKECQKSLDFVLGWFAKPVFIDGDYPESMKNNLSSILPDFTESEKKFIKGTADFFALCFGPTLSFQLLDPHMKFRQLESPNLRQLLSWIDLEFNHPQIFIVENGWFVSGTTKRDDAKYMYYLKKFIMETLKAIKLDGVDVIGYTAWSLMDGFEWHRGYSIRRGLFYVDFLSQDKMLLPKSSALFYQKLIEKNGFPPLPENQPLEGTFPCDFAWGVVDNYIQVSQLTKPISSLTKPYH
As to B1, the “α-SMA mRNA expression (relative)” value is 10.7876 and 4.655 and 3.074 and 8.483.
